# Target: T1, IL-1β (UniProt P01584 117-269)
# T1 construct: Antigen of XPA23
# Assay: Biacore, Fab periplasmic extract
row,fold difference in affinity against the original,Binder
1,1.11 fold,"XPA23 heavy chain G56T (Fab, V domains shown, Fab, periplasmic extract; also called C5A G56T) VH: EVQLLESGGGLVQPGGSLRLSCAASGFTFSKYFMFWVRQAPGKGLEWVSVISPSGTMTRYADSVKGRFTISRDNSKNTLYLQMNSLRAEDTAVYYCARVGYGGNSDYWGQGTLVTVSS VL: DIQMTQSPSSVSASVGDRLTIICRASQDINRWLAWYQQTPGNAPKLLIHSATSLQSGVPSRFSGSGSGTDFTLTINSLQPEDFATYYCQQADSFPLTFGGGTKVEIK"
2,0.08 fold,"XPA23 heavy chain G55L (Fab, V domains shown, Fab, periplasmic extract; also called C5A G55L) VH: EVQLLESGGGLVQPGGSLRLSCAASGFTFSKYFMFWVRQAPGKGLEWVSVISPSLGMTRYADSVKGRFTISRDNSKNTLYLQMNSLRAEDTAVYYCARVGYGGNSDYWGQGTLVTVSS VL: DIQMTQSPSSVSASVGDRLTIICRASQDINRWLAWYQQTPGNAPKLLIHSATSLQSGVPSRFSGSGSGTDFTLTINSLQPEDFATYYCQQADSFPLTFGGGTKVEIK"
3,0.85 fold,"XPA23 heavy chain G56P (Fab, V domains shown, Fab, periplasmic extract; also called C5A G56P) VH: EVQLLESGGGLVQPGGSLRLSCAASGFTFSKYFMFWVRQAPGKGLEWVSVISPSGPMTRYADSVKGRFTISRDNSKNTLYLQMNSLRAEDTAVYYCARVGYGGNSDYWGQGTLVTVSS VL: DIQMTQSPSSVSASVGDRLTIICRASQDINRWLAWYQQTPGNAPKLLIHSATSLQSGVPSRFSGSGSGTDFTLTINSLQPEDFATYYCQQADSFPLTFGGGTKVEIK"
4,0.12 fold,"XPA23 heavy chain G100T (Fab, V domains shown, Fab, periplasmic extract; also called C5A G100T) VH: EVQLLESGGGLVQPGGSLRLSCAASGFTFSKYFMFWVRQAPGKGLEWVSVISPSGGMTRYADSVKGRFTISRDNSKNTLYLQMNSLRAEDTAVYYCARVTYGGNSDYWGQGTLVTVSS VL: DIQMTQSPSSVSASVGDRLTIICRASQDINRWLAWYQQTPGNAPKLLIHSATSLQSGVPSRFSGSGSGTDFTLTINSLQPEDFATYYCQQADSFPLTFGGGTKVEIK"
5,0.86 fold,"XPA23 heavy chain G55I (Fab, V domains shown, Fab, periplasmic extract; also called C5A G55I) VH: EVQLLESGGGLVQPGGSLRLSCAASGFTFSKYFMFWVRQAPGKGLEWVSVISPSIGMTRYADSVKGRFTISRDNSKNTLYLQMNSLRAEDTAVYYCARVGYGGNSDYWGQGTLVTVSS VL: DIQMTQSPSSVSASVGDRLTIICRASQDINRWLAWYQQTPGNAPKLLIHSATSLQSGVPSRFSGSGSGTDFTLTINSLQPEDFATYYCQQADSFPLTFGGGTKVEIK"
6,1.21 fold,"XPA23 heavy chain G56A (Fab, V domains shown, Fab, periplasmic extract; also called C5A G56A) VH: EVQLLESGGGLVQPGGSLRLSCAASGFTFSKYFMFWVRQAPGKGLEWVSVISPSGAMTRYADSVKGRFTISRDNSKNTLYLQMNSLRAEDTAVYYCARVGYGGNSDYWGQGTLVTVSS VL: DIQMTQSPSSVSASVGDRLTIICRASQDINRWLAWYQQTPGNAPKLLIHSATSLQSGVPSRFSGSGSGTDFTLTINSLQPEDFATYYCQQADSFPLTFGGGTKVEIK"
7,0.89 fold,"XPA23 heavy chain F35V (Fab, V domains shown, Fab, periplasmic extract; also called C5A F35V) VH: EVQLLESGGGLVQPGGSLRLSCAASGFTFSKYFMVWVRQAPGKGLEWVSVISPSGGMTRYADSVKGRFTISRDNSKNTLYLQMNSLRAEDTAVYYCARVGYGGNSDYWGQGTLVTVSS VL: DIQMTQSPSSVSASVGDRLTIICRASQDINRWLAWYQQTPGNAPKLLIHSATSLQSGVPSRFSGSGSGTDFTLTINSLQPEDFATYYCQQADSFPLTFGGGTKVEIK"
8,0.03 fold,"XPA23 heavy chain G103A (Fab, V domains shown, Fab, periplasmic extract; also called C5A G103A) VH: EVQLLESGGGLVQPGGSLRLSCAASGFTFSKYFMFWVRQAPGKGLEWVSVISPSGGMTRYADSVKGRFTISRDNSKNTLYLQMNSLRAEDTAVYYCARVGYGANSDYWGQGTLVTVSS VL: DIQMTQSPSSVSASVGDRLTIICRASQDINRWLAWYQQTPGNAPKLLIHSATSLQSGVPSRFSGSGSGTDFTLTINSLQPEDFATYYCQQADSFPLTFGGGTKVEIK"
9,0.06 fold,"XPA23 heavy chain F35P (Fab, V domains shown, Fab, periplasmic extract; also called C5A F35P) VH: EVQLLESGGGLVQPGGSLRLSCAASGFTFSKYFMPWVRQAPGKGLEWVSVISPSGGMTRYADSVKGRFTISRDNSKNTLYLQMNSLRAEDTAVYYCARVGYGGNSDYWGQGTLVTVSS VL: DIQMTQSPSSVSASVGDRLTIICRASQDINRWLAWYQQTPGNAPKLLIHSATSLQSGVPSRFSGSGSGTDFTLTINSLQPEDFATYYCQQADSFPLTFGGGTKVEIK"
10,0.74 fold,"XPA23 heavy chain F35T (Fab, V domains shown, Fab, periplasmic extract; also called C5A F35T) VH: EVQLLESGGGLVQPGGSLRLSCAASGFTFSKYFMTWVRQAPGKGLEWVSVISPSGGMTRYADSVKGRFTISRDNSKNTLYLQMNSLRAEDTAVYYCARVGYGGNSDYWGQGTLVTVSS VL: DIQMTQSPSSVSASVGDRLTIICRASQDINRWLAWYQQTPGNAPKLLIHSATSLQSGVPSRFSGSGSGTDFTLTINSLQPEDFATYYCQQADSFPLTFGGGTKVEIK"
11,1.71 fold,"XPA23 heavy chain G56I (Fab, V domains shown, Fab, periplasmic extract; also called C5A G56I) VH: EVQLLESGGGLVQPGGSLRLSCAASGFTFSKYFMFWVRQAPGKGLEWVSVISPSGIMTRYADSVKGRFTISRDNSKNTLYLQMNSLRAEDTAVYYCARVGYGGNSDYWGQGTLVTVSS VL: DIQMTQSPSSVSASVGDRLTIICRASQDINRWLAWYQQTPGNAPKLLIHSATSLQSGVPSRFSGSGSGTDFTLTINSLQPEDFATYYCQQADSFPLTFGGGTKVEIK"
12,1.41 fold,"XPA23 heavy chain G56L (Fab, V domains shown, Fab, periplasmic extract; also called C5A G56L) VH: EVQLLESGGGLVQPGGSLRLSCAASGFTFSKYFMFWVRQAPGKGLEWVSVISPSGLMTRYADSVKGRFTISRDNSKNTLYLQMNSLRAEDTAVYYCARVGYGGNSDYWGQGTLVTVSS VL: DIQMTQSPSSVSASVGDRLTIICRASQDINRWLAWYQQTPGNAPKLLIHSATSLQSGVPSRFSGSGSGTDFTLTINSLQPEDFATYYCQQADSFPLTFGGGTKVEIK"

# Further lines, the binder ahead of its results:
row,Binder,fold difference in affinity against the original
1,"XPA23 heavy chain F33I (Fab, V domains shown, Fab, periplasmic extract; also called C5A F33I) VH: EVQLLESGGGLVQPGGSLRLSCAASGFTFSKYIMFWVRQAPGKGLEWVSVISPSGGMTRYADSVKGRFTISRDNSKNTLYLQMNSLRAEDTAVYYCARVGYGGNSDYWGQGTLVTVSS VL: DIQMTQSPSSVSASVGDRLTIICRASQDINRWLAWYQQTPGNAPKLLIHSATSLQSGVPSRFSGSGSGTDFTLTINSLQPEDFATYYCQQADSFPLTFGGGTKVEIK",0.75 fold
2,"XPA23 heavy chain F35G (Fab, V domains shown, Fab, periplasmic extract; also called C5A F35G) VH: EVQLLESGGGLVQPGGSLRLSCAASGFTFSKYFMGWVRQAPGKGLEWVSVISPSGGMTRYADSVKGRFTISRDNSKNTLYLQMNSLRAEDTAVYYCARVGYGGNSDYWGQGTLVTVSS VL: DIQMTQSPSSVSASVGDRLTIICRASQDINRWLAWYQQTPGNAPKLLIHSATSLQSGVPSRFSGSGSGTDFTLTINSLQPEDFATYYCQQADSFPLTFGGGTKVEIK",0.04 fold
3,"XPA23 heavy chain F35A (Fab, V domains shown, Fab, periplasmic extract; also called C5A F35A) VH: EVQLLESGGGLVQPGGSLRLSCAASGFTFSKYFMAWVRQAPGKGLEWVSVISPSGGMTRYADSVKGRFTISRDNSKNTLYLQMNSLRAEDTAVYYCARVGYGGNSDYWGQGTLVTVSS VL: DIQMTQSPSSVSASVGDRLTIICRASQDINRWLAWYQQTPGNAPKLLIHSATSLQSGVPSRFSGSGSGTDFTLTINSLQPEDFATYYCQQADSFPLTFGGGTKVEIK",0.07 fold
4,"XPA23 heavy chain F35I (Fab, V domains shown, Fab, periplasmic extract; also called C5A F35I) VH: EVQLLESGGGLVQPGGSLRLSCAASGFTFSKYFMIWVRQAPGKGLEWVSVISPSGGMTRYADSVKGRFTISRDNSKNTLYLQMNSLRAEDTAVYYCARVGYGGNSDYWGQGTLVTVSS VL: DIQMTQSPSSVSASVGDRLTIICRASQDINRWLAWYQQTPGNAPKLLIHSATSLQSGVPSRFSGSGSGTDFTLTINSLQPEDFATYYCQQADSFPLTFGGGTKVEIK",0.85 fold
5,"XPA23 heavy chain F33P (Fab, V domains shown, Fab, periplasmic extract; also called C5A F33P) VH: EVQLLESGGGLVQPGGSLRLSCAASGFTFSKYPMFWVRQAPGKGLEWVSVISPSGGMTRYADSVKGRFTISRDNSKNTLYLQMNSLRAEDTAVYYCARVGYGGNSDYWGQGTLVTVSS VL: DIQMTQSPSSVSASVGDRLTIICRASQDINRWLAWYQQTPGNAPKLLIHSATSLQSGVPSRFSGSGSGTDFTLTINSLQPEDFATYYCQQADSFPLTFGGGTKVEIK",0.91 fold
6,"XPA23 heavy chain F33L (Fab, V domains shown, Fab, periplasmic extract; also called C5A F33L) VH: EVQLLESGGGLVQPGGSLRLSCAASGFTFSKYLMFWVRQAPGKGLEWVSVISPSGGMTRYADSVKGRFTISRDNSKNTLYLQMNSLRAEDTAVYYCARVGYGGNSDYWGQGTLVTVSS VL: DIQMTQSPSSVSASVGDRLTIICRASQDINRWLAWYQQTPGNAPKLLIHSATSLQSGVPSRFSGSGSGTDFTLTINSLQPEDFATYYCQQADSFPLTFGGGTKVEIK",0.88 fold
7,"XPA23 heavy chain F35L (Fab, V domains shown, Fab, periplasmic extract; also called C5A F35L) VH: EVQLLESGGGLVQPGGSLRLSCAASGFTFSKYFMLWVRQAPGKGLEWVSVISPSGGMTRYADSVKGRFTISRDNSKNTLYLQMNSLRAEDTAVYYCARVGYGGNSDYWGQGTLVTVSS VL: DIQMTQSPSSVSASVGDRLTIICRASQDINRWLAWYQQTPGNAPKLLIHSATSLQSGVPSRFSGSGSGTDFTLTINSLQPEDFATYYCQQADSFPLTFGGGTKVEIK",0.78 fold
8,"XPA23 heavy chain F33V (Fab, V domains shown, Fab, periplasmic extract; also called C5A F33V) VH: EVQLLESGGGLVQPGGSLRLSCAASGFTFSKYVMFWVRQAPGKGLEWVSVISPSGGMTRYADSVKGRFTISRDNSKNTLYLQMNSLRAEDTAVYYCARVGYGGNSDYWGQGTLVTVSS VL: DIQMTQSPSSVSASVGDRLTIICRASQDINRWLAWYQQTPGNAPKLLIHSATSLQSGVPSRFSGSGSGTDFTLTINSLQPEDFATYYCQQADSFPLTFGGGTKVEIK",0.76 fold
9,"XPA23 heavy chain F33T (Fab, V domains shown, Fab, periplasmic extract; also called C5A F33T) VH: EVQLLESGGGLVQPGGSLRLSCAASGFTFSKYTMFWVRQAPGKGLEWVSVISPSGGMTRYADSVKGRFTISRDNSKNTLYLQMNSLRAEDTAVYYCARVGYGGNSDYWGQGTLVTVSS VL: DIQMTQSPSSVSASVGDRLTIICRASQDINRWLAWYQQTPGNAPKLLIHSATSLQSGVPSRFSGSGSGTDFTLTINSLQPEDFATYYCQQADSFPLTFGGGTKVEIK",0.78 fold
